Measurements reported in patent US20260146093A1 (DREN BIO MANAGEMENT, published 2026).

T1: human Dectin-1 isoform A on HEK-Blue hDectin-1a cells (human, UniProt Q9BXN2 1-247)
T1 sequence: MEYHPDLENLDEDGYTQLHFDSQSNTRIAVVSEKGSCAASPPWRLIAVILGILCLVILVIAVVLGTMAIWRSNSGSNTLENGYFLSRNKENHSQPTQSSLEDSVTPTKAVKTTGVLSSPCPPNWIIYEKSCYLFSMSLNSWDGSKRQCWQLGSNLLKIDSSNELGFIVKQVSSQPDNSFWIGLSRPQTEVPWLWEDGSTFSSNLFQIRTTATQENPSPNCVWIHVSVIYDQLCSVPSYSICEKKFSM

T2: human Trop-2 expressed on cells (A-431, NCI-N87, SKBR3, CHO-K1-hTrop2) (human, UniProt P09758 27-323)
T2 sequence: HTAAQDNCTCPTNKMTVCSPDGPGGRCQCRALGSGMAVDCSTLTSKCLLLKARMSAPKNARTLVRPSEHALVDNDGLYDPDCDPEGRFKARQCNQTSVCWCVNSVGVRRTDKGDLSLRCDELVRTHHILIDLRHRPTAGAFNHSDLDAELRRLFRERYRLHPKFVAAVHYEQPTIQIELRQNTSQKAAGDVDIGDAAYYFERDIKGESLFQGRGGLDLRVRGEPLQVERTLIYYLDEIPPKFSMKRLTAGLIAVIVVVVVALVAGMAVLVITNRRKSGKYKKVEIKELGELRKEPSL

B1: Dectin-1 2M24.124 x Trop-2 clone A hIgG1 (bispecific antibody)
anti-Dectin-1 heavy chain: QVQLVQSGAEVKKPGASVKVSCKASGYTFTDYYMHWVRQAPGQGLEWMGWINPNEGDTNYAQKFEGRITMTRDTSISTAYMELSRLRSDDTAVYYCARNTGAYSFGYWGCGTLVTVSS
anti-Dectin-1 light chain: DIQMTQSPSSVSASVGDRVTITCRASQGISSWLAWYQQKPGKCPKLLIYGASDLQSGVPSRFSGSGSGTDFTLTISSLQPEDFATYYCQQAYGFPFTFGPGTKVDIK
anti-Trop-2 heavy chain: QVQLQQSGSELKKPGASVKVSCKASGYTFTNYGMNWVKQAPGQGLKWMGWINTYTGEPTYTDDFKGRFAFSLDTSVSTAYLQISSLKADDTAVYFCARGGFGSSYWYFDVWGQGSLVTVSS
anti-Trop-2 light chain: DIQLTQSPSSLSASVGDRVSITCKASQDVSIAVAWYQQKPGKAPKLLIYSASYRYTGVPDRFSGSGSGTDFTLTISSLQPEDFAVYYCQQHYITPLTFGAGTKVEIK
notes: member of group m9; also called 2M24.124xTrop-2 clone A hG1; disulfide-engineered Fab-format bispecific, clone A
B2: Dectin-1 2M24.124 x Trop-2 clone B hIgG1 (bispecific antibody)
anti-Dectin-1 heavy chain: B1 anti-Dectin-1 heavy chain
anti-Dectin-1 light chain: B1 anti-Dectin-1 light chain
anti-Trop-2 heavy chain: QVQLQESGPGLVKPSGTLSLTCAVSGGSISSSNWWSWVRQPPGKGLEWIGEIYHDGSTDYFPSLKSRVTISVDKSKNQFSLKLSSVTAADTAVYYCARDNWGFDYWGQGTLVTVSS
anti-Trop-2 light chain: DIVLTQSPGTLSLSPGERATLSCRASQSVSSSYLAWYQQKPGQAPRLLISGASSRATGIPDRFSGSGSGTDFTLTISRLEPEDFAVYYCQQYGSSHRTFGQGTKVEIK
notes: member of group m9; also called 2M24.124xTrop-2 clone B hG1; disulfide-engineered Fab-format bispecific, clone B

Columns and labels:
[1] = target: T1, human Dectin-1 isoform A on HEK-Blue …; test: cell-based or functional assay
[2] = target: T1, human Dectin-1 isoform A on HEK-Blue …; test: flow cytometry on HEK cells expressing hDectin-1 (sheet title: Binding to HEK Blue Dectin 1a cells)
[3] = target: T2, human Trop-2 expressed on cells (A-431, …); test: flow cytometry on CHO-K1 cells expressing hTrop-2 (sheet title: Binding to Chok1 hTrop2)

Binder | EC50 of SEAP secretion by the hDectin-1 reporter cells (hDec1 Reporter Assay; the Trop-2-expressing cell line is not named) [1] | EC50 (read off the curve) [2] | EC50 (read off the curve) [3]
B1 | 0.62 nM | ~0.7 nM | ~5 nM
B2 | 0.61 nM | ~0.7 nM | ~7 nM
